One block for each binder: values may come before it.
Columns and labels:
[1] = biological target: T1, chemokine receptor 5 (CCR5; AC P51681) (human, UniProt P51681 1-352); assay: cell-based or functional assay
[2] = biological target: T2, chemokine receptor CCR1 (human, UniProt P32246 1-355); assay: radioligand competition binding, CCR1
T2 construct: whole, on cells
T2 sequence (looked up): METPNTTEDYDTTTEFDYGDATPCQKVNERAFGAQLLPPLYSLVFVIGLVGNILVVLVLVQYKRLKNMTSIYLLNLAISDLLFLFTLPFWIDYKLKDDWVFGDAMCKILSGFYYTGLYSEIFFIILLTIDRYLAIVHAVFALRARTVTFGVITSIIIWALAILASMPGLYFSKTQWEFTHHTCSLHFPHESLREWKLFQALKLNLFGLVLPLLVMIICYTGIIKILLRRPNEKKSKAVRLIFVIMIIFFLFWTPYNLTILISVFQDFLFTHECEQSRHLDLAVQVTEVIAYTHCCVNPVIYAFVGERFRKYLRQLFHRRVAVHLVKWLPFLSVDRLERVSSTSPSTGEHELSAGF

[3] = biological target: T3, chemokine receptor CCR3 (human, UniProt P51677 1-355); assay: radioligand competition, 125I-Eotaxin tracer, CCR3
T3 construct: whole, on cells
T3 sequence (looked up): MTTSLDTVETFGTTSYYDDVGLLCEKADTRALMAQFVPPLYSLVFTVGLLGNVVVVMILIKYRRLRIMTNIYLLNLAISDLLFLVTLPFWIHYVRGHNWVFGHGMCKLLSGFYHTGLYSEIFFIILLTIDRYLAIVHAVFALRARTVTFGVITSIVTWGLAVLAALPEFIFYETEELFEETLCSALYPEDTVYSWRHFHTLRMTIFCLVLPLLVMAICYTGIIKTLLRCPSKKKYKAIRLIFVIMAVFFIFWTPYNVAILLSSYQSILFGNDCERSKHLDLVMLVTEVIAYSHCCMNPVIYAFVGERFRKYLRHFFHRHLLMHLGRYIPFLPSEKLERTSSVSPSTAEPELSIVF

[4] = biological target: T2, chemokine receptor CCR1; assay: radioligand competition, 0.1 nM 125I-Rantes tracer, crude membranes of CHO-K1 cells expressing CCR1
[5] = biological target: T1, chemokine receptor 5 (CCR5; AC P51681); assay: radioligand competition, 0.1 nM 125I-MIP 1-alpha tracer, crude membranes of CHO-K1 cells expressing CCR5
[6] = biological target: T1, chemokine receptor 5 (CCR5; AC P51681); assay: radioligand competition, 125I-MIP 1-alpha tracer, CCR5
[7] = biological target: T2, chemokine receptor CCR1; assay: radioligand competition, 125I-Rantes tracer, CCR1
[8] = biological target: T3, chemokine receptor CCR3; assay: radioligand competition, 0.1 nM 125I-Eotaxin tracer, crude membranes of CHO-K1 cells expressing CCR3
[9] = biological target: T3, chemokine receptor CCR3; assay: cell-based or functional assay
[10] = biological target: T2, chemokine receptor CCR1; assay: cell-based or functional assay

T1 sequence (P51681 whole entry, one chain of several): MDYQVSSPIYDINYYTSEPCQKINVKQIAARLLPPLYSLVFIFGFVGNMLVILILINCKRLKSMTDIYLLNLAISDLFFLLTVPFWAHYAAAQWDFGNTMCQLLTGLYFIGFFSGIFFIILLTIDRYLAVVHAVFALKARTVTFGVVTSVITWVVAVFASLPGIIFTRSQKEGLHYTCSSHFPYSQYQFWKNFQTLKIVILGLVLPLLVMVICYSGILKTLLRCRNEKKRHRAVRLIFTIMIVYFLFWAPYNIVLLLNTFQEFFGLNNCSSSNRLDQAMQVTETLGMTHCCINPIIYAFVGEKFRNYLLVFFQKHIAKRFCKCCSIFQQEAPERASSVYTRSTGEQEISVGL

B1: MIP 1-alpha (ligand, UniProt P10147 24-92, looked up)
chain: SLAADTPTACCFSYTSRQIPQNFIADYFETSSQCSKPGVIFLTKRSRQVCADPSEEWVQKYVSDLELSA
aequorin assay (intracellular calcium), CHO-K1 cells expressing CCR5, EC50 [1]: 3.3 nM

B4: RANTES (ligand, UniProt P13501 24-91, looked up)
chain: SPYSSDTTPCCFAYIARPLPRAHIKEYFYTSGKCSNPAVVFVTRKNRQVCANPEKKWVREYINSLEMS
functional aequorin-based assay, EC50 [10]: 6.3 nM
aequorin assay (intracellular calcium), CHO-K1 cells expressing CCR5, EC50 [1]: 2.4 nM

Continued, values first:

Ki [2]: 100 nM
B2: full size human chemokine HCC-1, amino acid residues 1-74 (ligand)
chain: TKTESSSRGPYHPSECCFTYTTYKIPRQRIMDYYETNSQCSKPGIVFITKRGHSVCTNPSDKWVQDYIKDMKEN
notes: 74-residue chemokine, Mr 8673; Swiss-Prot Q16627 is printed for the HCC-1 precursor; also called full-size HCC-1; full length HCC-1

Ki [3]: 2.7 nM
IC50 [4]: 2.3 nM
IC50 [5]: 0.04 nM
Ki [6]: 0.04 nM
Ki [7]: 0.023 nM
IC50 [8]: 78 nM
functional aequorin-based assay, EC50 [9]: 78 nM
functional aequorin-based assay, EC50 [10]: 2.8 nM
aequorin assay (intracellular calcium), CHO-K1 cells expressing CCR5, EC50 [1]: 4.8 nM
B3: processed human chemokine PHC-1 (ligand)
chain: GPYHPSECCFTYTTYKIPRQRIMDYYETNSQCSKPGIVFITKRGHSVCTNPSDKWVQDYIKDMKEN
notes: Purified from human hemofiltrate or made by tryptic digestion of HCC-1 (1-74); also called HCC-1[9-74]; HCC-1, residues 9-74

From patent EP1167527A9 (Euroscreen S.A., dated 2002)
